The text below walks through data of paper PMC6093232, “PROMIS, global analysis of PROtein–metabolite interactions using size separation in Arabidopsis thaliana” (The Journal of Biological Chemistry, 2018).

The series deals with His6-GAPC1/2 (cytosolic glyceraldehyde-3-phosphate dehydrogenase, GAPC1 or GAPC2) (A. thaliana, UniProt P25858 1-338). Briefly: nano-DSF (thermal shift, Prometheus NT.48); plant GAPCs 0.2–0.25 mg/ml with 25 μM (GAPC1/2, GAPCP1) or 50 μM (GAPCP2) dipeptide in 1× PBS; thermal ramp 2 °C/min, 20–90 °C; Tm from F350/F330. Conditions: both partners purified.
Chain of His6-GAPC1/2 (cytosolic glyceraldehyde-3-phosphate dehydrogenase, GAPC1 or GAPC2) (P25858 whole entry): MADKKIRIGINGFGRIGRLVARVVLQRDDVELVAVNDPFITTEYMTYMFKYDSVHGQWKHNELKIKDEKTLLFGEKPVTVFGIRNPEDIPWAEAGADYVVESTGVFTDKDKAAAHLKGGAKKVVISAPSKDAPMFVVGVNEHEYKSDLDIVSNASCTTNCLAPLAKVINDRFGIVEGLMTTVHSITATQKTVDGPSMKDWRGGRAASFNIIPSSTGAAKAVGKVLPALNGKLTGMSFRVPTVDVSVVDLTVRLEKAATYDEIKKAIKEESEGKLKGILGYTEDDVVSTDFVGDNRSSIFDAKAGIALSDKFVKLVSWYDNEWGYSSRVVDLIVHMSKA

B1: dipeptide Tyr–Asp (peptide)
peptide: YD
notes: free dipeptide Tyr–Asp, printed in three-letter code; source: synthetic peptide; bought: Eurogentec
B1: the “decrease of Tm with 25 μM Tyr–Asp” value is ~1 °C.
